In patent publication US20190324040A1:

What was measured:
[1] = target: Zika virus (ZIKV), whole virus particles (Zika virus); test: virus capture ELISA
[2] = target: Zika virus (ZIKV), whole virus particles (Zika virus); test: cell-based or functional assay
[3] = target: Zika virus (ZIKV), whole virus particles (Zika virus); test: P1F12-ZIKV binding inhibition ELISA (4G2-captured ZIKV); competitor: 1/10 plasma of donor 138 (DENV+)
[4] = target: Zika virus (ZIKV), whole virus particles (Zika virus); test: P1F12-ZIKV binding inhibition ELISA (4G2-captured ZIKV); competitor: 1/10 plasma of donor 152 (DENV+)
[5] = target: Zika virus (ZIKV), whole virus particles (Zika virus); test: P1F12-ZIKV binding inhibition ELISA (4G2-captured ZIKV); competitor: 1/10 plasma of donor 168 (DENV+)
[6] = target: Zika virus (ZIKV), whole virus particles (Zika virus); test: P1F12-ZIKV binding inhibition ELISA (4G2-captured ZIKV); competitor: 1/10 plasma of donor 177 (DENV+)
[7] = target: Zika virus (ZIKV), whole virus particles (Zika virus); test: P1F12-ZIKV binding inhibition ELISA (4G2-captured ZIKV); competitor: 1/10 plasma of donor 184 (DENV+)
[8] = target: Zika virus (ZIKV), whole virus particles (Zika virus); test: P1F12-ZIKV binding inhibition ELISA (4G2-captured ZIKV); competitor: 1/10 plasma of donor 507 (DENV+)
[9] = target: Zika virus (ZIKV), whole virus particles (Zika virus); test: P1F12-ZIKV binding inhibition ELISA (4G2-captured ZIKV); competitor: 1/10 plasma of donor 533 (ZIKV+)
[10] = target: Zika virus (ZIKV), whole virus particles (Zika virus); test: P1F12-ZIKV binding inhibition ELISA (4G2-captured ZIKV); competitor: 1/10 plasma of donor 801 (ZIKV+)
[11] = target: Zika virus (ZIKV), whole virus particles (Zika virus); test: P1F12-ZIKV binding inhibition ELISA (4G2-captured ZIKV); competitor: 1/10 plasma of donor 802 (ZIKV+)
[12] = target: Zika virus (ZIKV), whole virus particles (Zika virus); test: P1F12-ZIKV binding inhibition ELISA (4G2-captured ZIKV); competitor: 1/10 plasma of donor 1208 (DENV+)
[13] = target: Zika virus (ZIKV), whole virus particles (Zika virus); test: P1F12-ZIKV binding inhibition ELISA (4G2-captured ZIKV); competitor: 1/10 plasma of donor 1235 (DENV+)
[14] = target: Zika virus (ZIKV), whole virus particles (Zika virus); test: P1F12-ZIKV binding inhibition ELISA (4G2-captured ZIKV); competitor: 1/10 plasma of donor 1248 (DENV+)
[15] = target: Zika virus (ZIKV), whole virus particles (Zika virus); test: P1F12-ZIKV binding inhibition ELISA (4G2-captured ZIKV); competitor: 1/10 plasma of donor 1252 (DENV+)
[16] = target: Zika virus (ZIKV), whole virus particles (Zika virus); test: P1F12-ZIKV binding inhibition ELISA (4G2-captured ZIKV); competitor: 1/10 plasma of donor 1280 (DENV+)
[17] = target: Zika virus (ZIKV), whole virus particles (Zika virus); test: P1F12-ZIKV binding inhibition ELISA (4G2-captured ZIKV); competitor: 1/10 plasma of donor 1294 (DENV+)
[18] = target: Zika virus (ZIKV), whole virus particles (Zika virus); test: P1F12-ZIKV binding inhibition ELISA (4G2-captured ZIKV); competitor: 1/10 plasma of donor 1302 (ZIKV+)
[19] = target: Zika virus (ZIKV), whole virus particles (Zika virus); test: P1F12-ZIKV binding inhibition ELISA (4G2-captured ZIKV); competitor: 1/10 plasma of donor 3002 (ZIKV+)
[20] = target: Zika virus (ZIKV), whole virus particles (Zika virus); test: P1F12-ZIKV binding inhibition ELISA (4G2-captured ZIKV); competitor: 1/10 plasma of donor 3004 (ZIKV+)
[21] = target: Zika virus (ZIKV), whole virus particles (Zika virus); test: P1F12-ZIKV binding inhibition ELISA (4G2-captured ZIKV); competitor: 1/10 plasma of donor 3012 (ZIKV+)
[22] = target: Zika virus (ZIKV), whole virus particles (Zika virus); test: P1F12-ZIKV binding inhibition ELISA (4G2-captured ZIKV); competitor: 1/10 plasma of donor 3013 (ZIKV+)
[23] = target: Zika virus (ZIKV), whole virus particles (Zika virus); test: P1F12-ZIKV binding inhibition ELISA (4G2-captured ZIKV); competitor: 1/10 plasma of donor 3018 (ZIKV+)
[24] = target: Zika virus (ZIKV), whole virus particles (Zika virus); test: P1F12-ZIKV binding inhibition ELISA (4G2-captured ZIKV); competitor: 1/10 plasma of donor hu004 (ZIKV+)
[25] = target: Zika virus (ZIKV), whole virus particles (Zika virus); test: P1F12-ZIKV binding inhibition ELISA (4G2-captured ZIKV); competitor: 1/10 plasma of donor hu002 (U.S. naive)
[26] = target: Zika virus (ZIKV), whole virus particles (Zika virus); test: P1F12-ZIKV binding inhibition ELISA (4G2-captured ZIKV); competitor: 1/10 plasma of donor FA2002 (YF vaccine)
[27] = target: Zika virus (ZIKV), whole virus particles (Zika virus); test: P1F12-ZIKV binding inhibition ELISA (4G2-captured ZIKV); competitor: 1/10 plasma of donor FA2004 (YF vaccine)
[28] = target: Zika virus (ZIKV), whole virus particles (Zika virus); test: P1F12-ZIKV binding inhibition ELISA (4G2-captured ZIKV); competitor: 1/10 plasma of donor FA2005 (YF vaccine)
[29] = target: Zika virus (ZIKV), whole virus particles (Zika virus); test: P1F12-ZIKV binding inhibition ELISA (4G2-captured ZIKV); competitor: 1/10 plasma of donor FA7006 (YF vaccine)
[30] = target: Zika virus (ZIKV), whole virus particles (Zika virus); test: P1F12-ZIKV binding inhibition ELISA (4G2-captured ZIKV); competitor: 1/10 plasma of donor 12 (naive)
[31] = target: Zika virus (ZIKV), whole virus particles (Zika virus); test: P1F12-ZIKV binding inhibition ELISA (4G2-captured ZIKV); competitor: 1/10 plasma of donor Class 1 (U.S. naive)
[32] = target: Zika virus (ZIKV), whole virus particles (Zika virus); test: P1F12-ZIKV binding inhibition ELISA (4G2-captured ZIKV); competitor: 1/10 plasma of donor Class 2 (U.S. naive)
[33] = target: Zika virus (ZIKV), whole virus particles (Zika virus); test: P1F12-ZIKV binding inhibition ELISA (4G2-captured ZIKV); competitor: 1/10 plasma of donor Class 3 (U.S. naive)
[34] = target: Zika virus (ZIKV), whole virus particles (Zika virus); test: P1F12-ZIKV binding inhibition ELISA (4G2-captured ZIKV); competitor: 1/10 plasma of donor Class 4 (U.S. naive)
[35] = target: Zika virus (ZIKV), whole virus particles (Zika virus); test: P1F12-ZIKV binding inhibition ELISA (4G2-captured ZIKV); competitor: 1/10 plasma of donor Class 5 (U.S. naive)
[36] = target: Zika virus (ZIKV), whole virus particles (Zika virus); test: P1F12-ZIKV binding inhibition ELISA (4G2-captured ZIKV); competitor: 1/10 plasma of donor Class 6 (U.S. naive)
[37] = target: Zika virus (ZIKV), whole virus particles (Zika virus); test: P1F12-ZIKV binding inhibition ELISA (4G2-captured ZIKV); competitor: 1/10 plasma of donor Class 7 (U.S. naive)
[38] = target: Zika virus (ZIKV), whole virus particles (Zika virus); test: P1F12-ZIKV binding inhibition ELISA (4G2-captured ZIKV); competitor: 1/10 plasma of donor Class 8 (U.S. naive)
[39] = target: Zika virus (ZIKV), whole virus particles (Zika virus); test: P1F12-ZIKV binding inhibition ELISA (4G2-captured ZIKV); competitor: 1/10 plasma of donor Class 9 (U.S. naive)
[40] = target: Zika virus (ZIKV), whole virus particles (Zika virus); test: P1F12-ZIKV binding inhibition ELISA (4G2-captured ZIKV); competitor: 1/10 plasma of donor 515 (naive)
[41] = target: Zika virus (ZIKV), whole virus particles (Zika virus); test: P1F12-ZIKV binding inhibition ELISA (4G2-captured ZIKV); competitor: 1/10 plasma of donor Class 10 (U.S. naive)
[42] = target: Zika virus (ZIKV), whole virus particles (Zika virus); test: P1F12-ZIKV binding inhibition ELISA (4G2-captured ZIKV); competitor: 1/10 plasma of donor Class 11 (U.S. naive)
[43] = target: Zika virus (ZIKV), whole virus particles (Zika virus); test: P1F12-ZIKV binding inhibition ELISA (4G2-captured ZIKV); competitor: 1/10 plasma of donor Class 12 (U.S. naive)
[44] = target: Zika virus (ZIKV), whole virus particles (Zika virus); test: P1F12-ZIKV binding inhibition ELISA (4G2-captured ZIKV); competitor: 1/10 plasma of donor Class 13 (U.S. naive)
[45] = target: Zika virus (ZIKV), whole virus particles (Zika virus); test: P1F12-ZIKV binding inhibition ELISA (4G2-captured ZIKV); competitor: 1/10 plasma of donor Class 14 (U.S. naive)
[46] = target: Zika virus (ZIKV), whole virus particles (Zika virus); test: P1F12-ZIKV binding inhibition ELISA (4G2-captured ZIKV); competitor: 1/10 plasma of donor 1255 (naive)
[47] = target: Zika virus (ZIKV), whole virus particles (Zika virus); test: P1F12-ZIKV binding inhibition ELISA (4G2-captured ZIKV); competitor: 1/10 plasma of donor 1261 (naive)
[48] = target: Zika virus (ZIKV), whole virus particles (Zika virus); test: P1F12-ZIKV binding inhibition ELISA (4G2-captured ZIKV); competitor: 1/10 plasma of donor 1273 (naive)

B1: CC17 mAb (P1F12) (antibody, V domains shown)
VH: QVQLVQSGGGLVQPGGSLRLSCAASGFTFSSYWMSWVRQAPGKGLEWVANIKQDGSEKYYVDSVKGRFTISRDNAKNSLYLQMNSLRAEDTAVYYCAGNGWDDSSGYYYRNYYYGMDVWGQGTTVTVSS
VL: DIQMTQSPSSFSASTGDRVTITCRASQGISSYLAWYQQKPGKAPKLLIYAASTLQSGVPSRFSGSGSGTDFTLTISCLQSEDFATYYCQQYYSYPRTFGGGTKVDIK
- ZIKV binding Abs 450 nm [1]: 0.17 Abs 450 nm
- % of Zika virus Neutralized (Vero infectivity assay), antibody at 1 µg/ml [2]: 82.3%
- Neut50 [2]: 2 µg/mL
- PRNT50 (plaque reduction neutralization test) [2]: 2 µg/mL
- P1F12-ZIKV inhibition assay (Abs450) [3]: 0.34 Abs450
- P1F12-ZIKV inhibition assay (Abs450) [4]: 0.15 Abs450
- P1F12-ZIKV inhibition assay (Abs450) [5]: 0.32 Abs450
- P1F12-ZIKV inhibition assay (Abs450) [6]: 0.18 Abs450
- P1F12-ZIKV inhibition assay (Abs450) [7]: 0.26 Abs450
- P1F12-ZIKV inhibition assay (Abs450) [8]: 0.28 Abs450
- P1F12-ZIKV inhibition assay (Abs450) [9]: 0.03 Abs450
- P1F12-ZIKV inhibition assay (Abs450) [10]: 0.04 Abs450
- P1F12-ZIKV inhibition assay (Abs450) [11]: 0.05 Abs450
- P1F12-ZIKV inhibition assay (Abs450) [12]: 0.25 Abs450
- P1F12-ZIKV inhibition assay (Abs450) [13]: 0.18 Abs450
- P1F12-ZIKV inhibition assay (Abs450) [14]: 0.36 Abs450
- P1F12-ZIKV inhibition assay (Abs450) [15]: 0.19 Abs450
- P1F12-ZIKV inhibition assay (Abs450) [16]: 0.29 Abs450
- P1F12-ZIKV inhibition assay (Abs450) [17]: 0.29 Abs450
- P1F12-ZIKV inhibition assay (Abs450) [18]: 0.62 Abs450
- P1F12-ZIKV inhibition assay (Abs450) [19]: 0.04 Abs450
- P1F12-ZIKV inhibition assay (Abs450) [20]: 0.03 Abs450
- P1F12-ZIKV inhibition assay (Abs450) [21]: 0.05 Abs450
- P1F12-ZIKV inhibition assay (Abs450) [22]: 0.03 Abs450
- P1F12-ZIKV inhibition assay (Abs450) [23]: 0.04 Abs450
- P1F12-ZIKV inhibition assay (Abs450) [24]: 0.04 Abs450
- P1F12-ZIKV inhibition assay (Abs450) [25]: 0.57 Abs450
- P1F12-ZIKV inhibition assay (Abs450) [26]: 0.319 Abs450
- P1F12-ZIKV inhibition assay (Abs450) [27]: 0.393 Abs450
- P1F12-ZIKV inhibition assay (Abs450) [28]: 0.332 Abs450
- P1F12-ZIKV inhibition assay (Abs450) [29]: 0.396 Abs450
- P1F12-ZIKV inhibition assay (Abs450) [30]: 0.22 Abs450
- P1F12-ZIKV inhibition assay (Abs450) [31]: 0.323 Abs450
- P1F12-ZIKV inhibition assay (Abs450) [32]: 0.312 Abs450
- P1F12-ZIKV inhibition assay (Abs450) [33]: 0.406 Abs450
- P1F12-ZIKV inhibition assay (Abs450) [34]: 0.392 Abs450
- P1F12-ZIKV inhibition assay (Abs450) [35]: 0.389 Abs450
- P1F12-ZIKV inhibition assay (Abs450) [36]: 0.292 Abs450
- P1F12-ZIKV inhibition assay (Abs450) [37]: 0.246 Abs450
- P1F12-ZIKV inhibition assay (Abs450) [38]: 0.303 Abs450
- P1F12-ZIKV inhibition assay (Abs450) [39]: 0.316 Abs450
- P1F12-ZIKV inhibition assay (Abs450) [40]: 0.293 Abs450
- P1F12-ZIKV inhibition assay (Abs450) [41]: 0.315 Abs450
- P1F12-ZIKV inhibition assay (Abs450) [42]: 0.395 Abs450
- P1F12-ZIKV inhibition assay (Abs450) [43]: 0.344 Abs450
- P1F12-ZIKV inhibition assay (Abs450) [44]: 0.276 Abs450
- P1F12-ZIKV inhibition assay (Abs450) [45]: 0.323 Abs450
- P1F12-ZIKV inhibition assay (Abs450) [46]: 0.323 Abs450
- P1F12-ZIKV inhibition assay (Abs450) [47]: 0.405 Abs450
- P1F12-ZIKV inhibition assay (Abs450) [48]: 0.395 Abs450

B2: CC4 mAb (P1604) (antibody, V domains shown)
VH: VQLVQESGPGPVKPSETLSLTCTVSGGSISSYYWSWIRQPAGKGLEWIGRIYTSGSTNYNPSLKSRVTMSVDTSKNQFSLKLSSVTAADTAVYYCARESGSLYMDVWGKGTAVTVSS
VL: DVVMTQSPATLSLPPGERATLSCRASQSVSSYLAWYQQKPGQAPRLLIYDASNRATGIPARFSGSGSGTDFTLTISSLEPEDFAVYYCQQRSNWPLTFGGGTKVDIK
- ZIKV binding Abs 450 nm [1]: 0.87 Abs 450 nm
- % of Zika virus Neutralized (Vero infectivity assay), antibody at 4 µg/ml [2]: 19.3%
